Earlier results on one substance are cited in US20080070838A1, “Growth Factor Treatment for Asthma” (University of Southampton, priority 2004, published 2008).

In this data set the test system is airway fibrosis. Particulars: mouse, in vivo.

As for “TGFα: structural homologue of EGF and a ligand for the EGF receptor”, the airway fibrosis entry was “marked airway fibrosis”.
